Laboratory results reported in patent US20180326084A1 (Genmab, published 2018).
Residue numbers refer to the chain shown, from its start.

T1: Homo sapiens AXL-Mus musculus FN1 domain (p33-AXL-mFN1) (human-mouse chimera, UniProt P30530 26-894)
T1 construct: Expressed in HEK293F cells; also called hsAXL-mmFN1; TH1021-mFN1
T1 chain: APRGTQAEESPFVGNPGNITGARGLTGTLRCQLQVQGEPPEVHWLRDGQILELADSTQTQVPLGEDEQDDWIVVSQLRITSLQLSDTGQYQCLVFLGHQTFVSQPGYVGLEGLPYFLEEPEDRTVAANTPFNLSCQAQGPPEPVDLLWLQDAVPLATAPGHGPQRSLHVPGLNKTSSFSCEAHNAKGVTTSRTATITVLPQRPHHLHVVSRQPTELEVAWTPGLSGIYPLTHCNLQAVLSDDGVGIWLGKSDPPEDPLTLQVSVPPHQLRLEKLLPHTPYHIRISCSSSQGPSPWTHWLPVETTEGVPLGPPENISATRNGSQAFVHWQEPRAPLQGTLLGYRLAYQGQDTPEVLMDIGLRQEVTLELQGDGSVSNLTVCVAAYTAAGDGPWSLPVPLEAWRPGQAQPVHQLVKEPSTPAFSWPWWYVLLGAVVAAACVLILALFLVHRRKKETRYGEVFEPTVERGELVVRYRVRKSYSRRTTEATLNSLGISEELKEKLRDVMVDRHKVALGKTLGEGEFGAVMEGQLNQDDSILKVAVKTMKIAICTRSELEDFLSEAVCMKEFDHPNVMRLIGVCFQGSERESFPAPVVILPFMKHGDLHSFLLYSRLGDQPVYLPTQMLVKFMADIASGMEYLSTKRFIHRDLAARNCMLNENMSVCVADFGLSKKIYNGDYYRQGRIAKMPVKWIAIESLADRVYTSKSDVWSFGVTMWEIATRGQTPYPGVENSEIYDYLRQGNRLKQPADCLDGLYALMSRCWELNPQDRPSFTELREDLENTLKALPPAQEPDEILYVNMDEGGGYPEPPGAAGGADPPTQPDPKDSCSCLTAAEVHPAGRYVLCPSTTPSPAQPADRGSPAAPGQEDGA

T2: Homo sapiens AXL-Mus musculus FN2 domain (p33-AXL-mFN2) (human-mouse chimera, UniProt P30530 26-894)
T2 construct: Expressed in HEK293F cells; also called hsAXL-mmFN2; TH1021-mFN2
T2 chain: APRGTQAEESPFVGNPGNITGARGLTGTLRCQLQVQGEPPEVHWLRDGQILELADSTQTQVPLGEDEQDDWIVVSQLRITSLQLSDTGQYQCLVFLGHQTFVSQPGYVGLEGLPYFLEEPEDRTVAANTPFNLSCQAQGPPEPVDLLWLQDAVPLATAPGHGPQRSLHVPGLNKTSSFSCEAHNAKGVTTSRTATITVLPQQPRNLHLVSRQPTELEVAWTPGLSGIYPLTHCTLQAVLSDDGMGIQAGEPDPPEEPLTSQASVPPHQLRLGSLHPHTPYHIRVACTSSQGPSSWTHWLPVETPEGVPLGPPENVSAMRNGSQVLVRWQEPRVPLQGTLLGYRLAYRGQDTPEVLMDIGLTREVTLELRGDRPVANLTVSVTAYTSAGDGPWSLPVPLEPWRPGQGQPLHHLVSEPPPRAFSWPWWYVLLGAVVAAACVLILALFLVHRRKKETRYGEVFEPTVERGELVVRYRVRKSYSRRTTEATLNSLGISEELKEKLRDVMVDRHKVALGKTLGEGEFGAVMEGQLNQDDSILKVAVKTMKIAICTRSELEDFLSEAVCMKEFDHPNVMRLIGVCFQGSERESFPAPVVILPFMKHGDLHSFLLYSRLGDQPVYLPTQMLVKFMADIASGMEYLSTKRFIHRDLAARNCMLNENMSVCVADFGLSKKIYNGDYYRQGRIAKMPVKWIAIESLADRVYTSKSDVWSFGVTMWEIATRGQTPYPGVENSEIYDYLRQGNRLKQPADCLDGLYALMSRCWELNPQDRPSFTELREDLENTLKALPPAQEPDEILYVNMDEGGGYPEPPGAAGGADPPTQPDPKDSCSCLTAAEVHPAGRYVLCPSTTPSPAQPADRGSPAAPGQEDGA

T3: Homo sapiens AXL-Mus musculus Ig2 domain (p33-AXL-mIg2) (human-mouse chimera, UniProt P30530 26-894)
T3 construct: Expressed in HEK293F cells; also called hsAXL-mmIg2; TH1021-mIg2
T3 chain: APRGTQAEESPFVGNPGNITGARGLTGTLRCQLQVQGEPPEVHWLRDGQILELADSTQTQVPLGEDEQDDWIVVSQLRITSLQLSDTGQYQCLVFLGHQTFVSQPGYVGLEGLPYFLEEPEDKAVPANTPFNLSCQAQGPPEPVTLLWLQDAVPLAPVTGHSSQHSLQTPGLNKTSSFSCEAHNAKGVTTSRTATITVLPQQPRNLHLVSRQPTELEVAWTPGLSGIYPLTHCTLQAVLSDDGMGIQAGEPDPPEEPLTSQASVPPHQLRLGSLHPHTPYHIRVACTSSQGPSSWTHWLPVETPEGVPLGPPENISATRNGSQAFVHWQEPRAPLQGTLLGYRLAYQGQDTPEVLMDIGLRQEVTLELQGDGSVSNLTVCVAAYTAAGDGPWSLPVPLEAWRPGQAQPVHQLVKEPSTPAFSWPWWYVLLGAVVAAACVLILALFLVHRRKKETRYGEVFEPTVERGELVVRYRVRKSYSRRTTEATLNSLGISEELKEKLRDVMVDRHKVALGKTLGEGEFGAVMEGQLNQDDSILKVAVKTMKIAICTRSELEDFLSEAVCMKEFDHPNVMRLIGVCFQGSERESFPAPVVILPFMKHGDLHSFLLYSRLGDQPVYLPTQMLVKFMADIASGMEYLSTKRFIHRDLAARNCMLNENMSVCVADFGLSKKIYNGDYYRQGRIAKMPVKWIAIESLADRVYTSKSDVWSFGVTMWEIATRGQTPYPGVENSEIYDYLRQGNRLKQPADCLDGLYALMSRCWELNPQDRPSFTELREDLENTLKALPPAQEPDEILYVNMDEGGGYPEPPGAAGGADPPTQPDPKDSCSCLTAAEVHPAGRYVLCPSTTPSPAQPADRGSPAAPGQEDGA

B1: IgG1-AXL-148 (antibody, V domains shown)
VH: EVQLLESGGGLVQPGGSLRLSCAASGFTFSSYAMTWVRQAPGKGLEWVSAISISGGSTFYADSVKGRFTISRDNSKNTLYLQMNSLRAEDTAVYYCRGYSGYVYDAFDFWGQGTMVTVSS
VL: DIQMTQSPSSLSASVGDRVTITCRASQGISNWLAWYQQKPEKAPKSLIYAASSLQSGVPSRFSGSGSGTDFTLTISSLQPEDFATYYCQQYNSYPLTFGGGTKVEIK
B2: IgG1-AXL-726 (antibody, V domains shown)
VH: QVQLQQWGAGLLKPSETLSLTCAIDGGSFSGYYWSWIRQPPGKGLEWIGEISHSGRTNYNPSLKSRVTISIDTSKNQFSLKLSSVAAADTAVYYCARFITMIRGAIITHFDYWGQGALVTVSS
VL: B1 VL with N31S, N92H, L96Y, G100Q, V104L
B3: IgG1-AXL-733 (antibody, V domains shown)
VH: QVQLVESGGGVVQPGRSLRLSCAASGFSFSTYAMHWVRQAPGKGLEWVAVISYDGDNKYSADSVKGRFTISRDNSKNTLYLQMNSLRAEDTAVYYCARGRKLGIDAFDIWGQGTMVTVSS
VL: AIQLTQSPSSLSASVGDRVTITCRASQGISSALAWYQQKPGKAPKLLIYDASSLESGVPSRFSGSGSGTDFTLTISGLQPEDFATYYCQQFNSYPFTFGPGTKVDIK
B4: IgG1-AXL-183 (antibody, V domains shown)
VH: QVQLQQWGAGLLKPSETLSLTCAVYGGSFSGYYWSWIRQPPGKGLEWIGEINQSGSTNYNPSLKSRVTISVDTSKNQFSLKLSSVTAADTSVYYCASGNWDHFFDYWGQGTLVTVSS
VL: DIQMTQSPSSVSASVGDRVTITCRASQGISSWLAWYQHKPGKAPKLLIYATSSLQSGVTSRFSGSGSGTDFTLTISSLQPEDFATYYCQQAKSFPWTFGQGTKVEIK

Key:
human AXL (full length) [1] = biological target: T4, human AXL (full length) (human, UniProt P30530 26-894); assay: flow cytometry, A431 cells, no Gas6
T4 construct: also called TH1021-AXL; TH1021-hAXL

human AXL (full length) [2] = biological target: T4, human AXL (full length); assay: flow cytometry, HEK293T cells with full-length human AXL
[3] = biological target: T1, Homo sapiens AXL-Mus musculus FN1 …; assay: flow cytometry, 1 µg/mL antibody, transfected HEK293F cells
[4] = biological target: T2, Homo sapiens AXL-Mus musculus FN2 …; assay: as above
[5] = biological target: T3, Homo sapiens AXL-Mus musculus Ig2 …; assay: as above

Row | Binder | EC50 (human AXL (full length) [1]) | EC50 (human AXL (full length) [2]) | binding result [3] | binding result [4] | binding result [5]
1 | B1 | 0.11 µg/mL | 0.094 µg/mL | binds | binds | 
2 | B2 | 0.32 µg/mL | 0.288 µg/mL | binds |  | binds
3 | B3 | 0.49 µg/mL | 0.176 µg/mL |  | binds | binds
4 | B4 | 0.69 µg/mL | 0.526 µg/mL | binds | binds | binds
